Measured values published in patent US9856300B2, “Dpy-30 binding peptides and methods of use” (Marquette University, priority 2011, dated 2018).
No end group written: not given here.

How the values were obtained:
RIα D/D (a.a.#1-81) = molecular target: T1, RIα D/D (a.a.#1-81) (Bos taurus, UniProt P00514); assay: Ni-NTA pulldown with His-RIα D/D; format: binding, bovine; settings: 300 mM NaCl buffers
T1 construct: made in house; host or cells: E. coli BL21(DE3); template pRSETB-RIα from Dr. Susan Taylor
Source text: (§1) Most AHs are mono-specific to RIIα D/D except a few that are either RIα D/D-specific (Angelo and Rubin, 1998; Means et al., 2011; Welch et al., 2010) or dual specific, binding to both (Huang et al., 1997; Jarnaess et al., 2008). To test if hAsh2 AH can cross-react with PKA's D/D, we created constructs expressing the D/D domain and the flanking sequences from bovine RIα (a.a.#1-81) and mouse RIIα (a.a.#1-64). His-RIα D/D or His-RIIα D/D was co-expressed with GST-RSP396-180, which contains the AH (RSP3160-178) that bind RII in the overlay assay (Gaillard et al., 2001). […] In the eluate, the ratio of RSP396-180-RIα D/D was the lowest, followed by RSP396-180-RIIα D/D and then RSP396-180-RIIα D/D from RSP7, the de facto partner of RSP3. Although RSP396-180 in the extract was also the most concentrated when co-expressed with RSP7's RIIα, this likely is due to effective binding of RSP7's D/D, protecting GST-RSP396-180 from proteolysis, which occurred when GST-RSP396-180 was expressed by itself (not shown). […]
Although both RIα D/D and Dpy-30 D/D have a common α0 helix (Wang et al., 2009), GST-hAsh2593-623 cross reacted with RIα D/D poorly. […] To test this, the samples from repeated experiments were analyzed in the non-reducing SDS-PAGE. […]

RIIα D/D (a.a.#1-64) = molecular target: T2, RIIα D/D (a.a.#1-64) (Mus musculus, UniProt P12367, S2G); assay: Ni-NTA pulldown with His-RIIα D/D; format: binding; settings: 300 mM NaCl buffers
T2 construct: made in house; host or cells: E. coli BL21(DE3); template pRSETB-RIIα from Dr. Susan Taylor
Source text: as §1, with “shown). Similarly, when co-expressed with GST-hAsh2593-623, RIα D/D and RIIα D/D were depleted in the flow through but few polypeptides, especially RIIα D/D, were present in the eluate (FIG. 12A, right panel, compare Extract, Post and Elute).” for “shown).”

Dpy-30 [1] = molecular target: T3, Dpy-30 (Homo sapiens, UniProt Q9C005); assay: Ni-NTA pulldown of GST-hAsh2 peptides with His-Dpy-30; format: binding; design: Dpy-30 fragments, full length or a.a.#49-99, were amplified using purchased IMAGE cDNA clone #4081996 as a template; made in house; host or cells: E. coli BL21(DE3); key to co-purified with Dpy-30: “+” or “−” indicates if the peptides were or were not evidently co-purified with Dpy-30; “+” or “−” indicates if the peptides were or were not evidently co-purified with Dpy-30
Source text: To test this, we performed pull down assays for His-Dpy-30 and GST-hAsh2593-623. The human Ash2 fragment contains a helix with two typical and three atypical ΦΦXX motifs. The hAsh2 DNA was fused downstream to GST DNA by PCR and the product was cloned into an expression vector. Three clones—#9 and #14 with the expected in-frame fusion and #6 with an out-of-frame fusion—were expressed in bacteria. Their extract was mixed with equal volume of bacterial extract with His-Dpy-30; and the mixture was subjected to Ni-NTA purification. […] Thus hAsh2593-623 interacts with Dpy-30 specifically.
Table 3 illustrates the protein sequences of hAsh2's C-terminal region (hAsh2593-623) and its variants, where “+” or “−” indicates if the peptides were or were not evidently co-purified with Dpy-30. The shorter fusion protein GST-hAsh2593-617 that terminated right after the last possible ΦΦXX-like motif, VETE (SEQ ID NO:35), in the helix was also co-purified with His-Dpy-30 (FIG. 11B, arrow and double arrowheads), no matter expressed separately or co-expressed. Both polypeptides were depleted in the flow through of Ni-NTA matrix (Post in FIG. 11B) and retained in the eluate.
All expression constructs were transformed or co-transformed into BL21(DE3) cells. The colonies were selected based on the antibiotic-resistant gene in each plasmid. The cultures were induced with 1 mM IPTG overnight at 18° C. The cell pellet from a 5-ml culture was resuspended in 750-μl lysis buffer supplemented with Complete Mini EDTA-free protease inhibitor cocktail tablets (Roche) and the suspension was sonicated on ice using Branson digital Sonifier until clarified (Emerson Industrial Automation). The sonicated mixtures were centrifuged at 4° C., 12,000 rpm for 25 min. The supernatant or combinations of supernatants as indicated were incubated with ˜100 μl Ni-NTA (Qiagen or Clontech) or Glutathione Sepharose 4B (Amersham Biosciences) for 1 hour at room temperature. The matrix was subsequently washed as instructed by manufacturers, unless indicated otherwise.
Bacterial extract, flow through and eluate in 1× Laemmli samples buffer were boiled for 5 min. In general, 10 μl samples were loaded in each lane in 4-20% precast acrylamide gels (Bio-Rad or DGEL Electrosystem, Canada) or 14% manually cast gels.

[2] = molecular target: T4, Dpy-30 domain only (Dpy-3045-99) (Homo sapiens, UniProt Q9C005); assay: Ni-NTA pulldown of GST-tagged RSP3 peptides with the Dpy-30 domain only; format: binding
T4 construct: made in house; host or cells: E. coli BL21(DE3), co-expressed with the GST-RSP3 peptides
Procedure: (§2) The experiments were further conducted on smaller segments within a.a.#269-316. GST-RSP3280-316 and GST-RSP3280-308, but not GST-RSP3280-306, were also pulled down by His-Dpy-30 (FIG. 7E, left panel). […] To ensure that the co-purification occurs through the Dpy-30 domain rather than its flanking sequence, the same experiment was conducted with the Dpy-30 domain only (Dpy-3045-99, Wang et al., 2009). The results from the experiments using Dpy-30 domain alone or full-length Dpy-30 protein were similar (FIG. 7E, right panel). Based on the similar dimensions of the RIIa and Dpy-30 domains (FIG. 1), we tested if the Dpy-30 binding peptide is centered on the 18-a.a. helix at the a.a.#291-308 by mutating V300 in the middle of the region into P, a strategy used to study AHR (Gaillard et al., 2001; Carr et al., 1992). […] RSP3291-308.
For Ni-NTA (Qiagen) affinity co-purification, GST-tagged RSP3 constructs and His-tagged HDpy-30 constructs were co-transformed into BL21(DE3) cells. The recombinant proteins were induced using 1 mM IPTG overnight at 16° C. Following induction, the cell pellet from a 5-ml culture was resuspended in 750 μl lysis buffer and sonicated using Branson digital Sonifier (Emerson Industrial Automation). The sonicated mixtures were centrifuged at 4° C., 12,000 rpm for 25 min. The supernatant was incubated with 100 μl Ni-NTA for 1 hour at room temperature. […]

Dpy-30 [3] = molecular target: T3, Dpy-30; assay: Ni-NTA pulldown of GST-tagged RSP3 peptides with His-tagged human Dpy-30 protein; format: binding; design: made in house; host or cells: E. coli BL21(DE3), co-expressed with the GST-RSP3 peptides; settings: full-length human His-Dpy-30 co-expressed with GST-RSP3 peptide
Source text: (§3) Based on the phenotypes of RSP3 transgenic strains (FIG. 4), an in vitro approach was taken to test that RSP3269-316 contains a Dpy-30 domain binding site. RIIa-binding AHs are 14-18-a.a. long. Some of AHs are clearly comprised of ΦΦXX repeats in which the first two residues are hydrophobic residues (Φ) positioned to interact with complementary residues at the binding grooves of the RIIa domain (Burns-Hamuro et al., 2003; Kinderman et al., 2006; Sarma et al., 2010), whereas for the other RIIa-binding AHs the repeats are not as evident (Gold et al., 2006; Gaillard et al., 2001). Typical ΦΦXX repeats were noted within the Dpy-30 binding fragment in BIG1 at the trans-Golgi network but were not tested yet (Xia et al., 2010). For RSP3269-316, typical and degenerate ΦΦXX repeats are present throughout this region, thus the precise Dpy-30 binding site was determined objectively by Ni-NTA pulldown. As a control, the His-tagged RIIa domain from RSP7 was co-expressed with the GST-tagged RSP396-180 that harbors AHR at a.a.#161-178 (Gaillard et al., 2001; FIG. 3) and both polypeptides were co-purified by Ni-NTA (FIG. 7A). Various Dpy-30 domain containing RSP2 and RSP23 polypeptides were tested but were not compatible for this assay due to poor expression or precipitation propensity. Therefore we used the His-tagged human Dpy-30 protein for Ni-NTA pulldown instead. As expected, both GST-RSP3245-316 and GST-RSP3269-316 were co-purified with His-Dpy-30 by Ni-NTA (FIGS. 7B and 7C). In contrast, the GST control was not co-purified (FIG. 7D).
as §2
For Ni-NTA (Qiagen) affinity co-purification, GST-tagged RSP3 constructs and His-tagged HDpy-30 constructs were co-transformed into BL21(DE3) cells. The recombinant proteins were induced using 1 mM IPTG overnight at 16° C. Following induction, the cell pellet from a 5-ml culture was resuspended in 750 μl lysis buffer and sonicated using Branson digital Sonifier (Emerson Industrial Automation). The sonicated mixtures were centrifuged at 4° C., 12,000 rpm for 25 min. The supernatant was incubated with 100 μl Ni-NTA for 1 hour at room temperature. The matrix was subsequently washed thrice and elution was carried out as instructed by the manufacturer.

RIIa domain from RSP7 = assay: Ni-NTA pulldown with His-tagged RIIa domain from RSP7; format: binding, Chlamydomonas; settings: co-expressed in bacteria
Source text: as §3
Based on the structural similarity, we tested for the cross-recognition of His-Dpy-30 and AHR (GST-RSP3g); and RSP7's RIIa and AHD (GST-RSP3280-308) by the described Ni-NTA pulldown assay. […] Thus Dpy-30 that has a deep pocket from an additional α-helix recognizes both AHR and AHD, whereas RSP7's RIIa, as PKA's RII, only binds RSP3's AHR(Gaillard et al., 2001). […]

T3 sequence (Q9C005 whole entry, the tested form may be a part): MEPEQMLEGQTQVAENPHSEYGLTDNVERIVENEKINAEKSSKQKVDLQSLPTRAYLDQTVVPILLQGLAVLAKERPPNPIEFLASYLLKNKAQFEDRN
T1 sequence (P00514 1-81): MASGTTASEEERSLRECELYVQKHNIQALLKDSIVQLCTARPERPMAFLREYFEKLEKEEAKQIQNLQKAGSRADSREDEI
T2 sequence (P12367 1-64 S2G limits assumed): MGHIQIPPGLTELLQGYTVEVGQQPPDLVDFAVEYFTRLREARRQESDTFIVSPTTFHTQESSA
T4 sequence (Q9C005 45-99): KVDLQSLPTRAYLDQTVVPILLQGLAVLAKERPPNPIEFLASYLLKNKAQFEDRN

PMSDMGWGAVVKHTLADVLYHVETEVDGRRS (also: GST fusion) [E604K, GST-hAsh2593-623 with E604 mutated to K]
co-purification with His-RIα D/D (RIα D/D (a.a.#1-81)): not | co-purification with His-RIIα D/D (RIIα D/D (a.a.#1-64)): substantially enhanced the pulldown | co-purified with Dpy-30 (Dpy-30 [1]; GST-fused hAsh2 peptides, Ni-NTA pulldown, Coomassie-stained SDS-PAGE): + | co-purification with His-Dpy-30 (Dpy-30 [1]; full-length His-Dpy-30, Ni-NTA, result in words): still pulled down substantially

V300P: GST-tagged RSP3280-316 with V300 mutated into P (PWLKEQAIGYLARGVVARRVPDKLVEDAAAALAANRS; also: GST tag)
binding to the Dpy-30 domain [2]: abrogated the binding | co-purification / pulldown with His-Dpy-30 (Dpy-30 [3]): abrogated the binding

B1: RSP396-180: GST-tagged RSP3 fragment a.a. 96-180 that harbors the RIIa-binding AHR at a.a.#161-178 (protein)
chain: HIDIQTDVYLEELTDTVPEADTSTQTDAFLDRPPTPLFVPQKTGTDAITQIENGDLFDFDFEVEPILEVLVGKVLEQGLMEVLEE
modifications: left off: a dimerising Fc or GST
co-purification / pulldown with His-RIIa from RSP7 (RIIa domain from RSP7): co-purified | co-purification / pulldown with His-RIIa from RSP7 (RIIa domain from RSP7; listed as GST-RSP390-180): most efficient | co-purification with His-RIα D/D (RIα D/D (a.a.#1-81)): the lowest | co-purification / pulldown with His-Dpy-30 (Dpy-30 [3]): pulled down
